From patent US20180021429A1, “ANTICANCER AGENTS OR ANTIMETASTATIC AGENTS USING FSTL1 AND COMBINATION DRUG THEREOF” (PHARMA FOODS INTERNATIONAL CO., LTD., priority 2015, published 2018)

Experiments:
[1] = test system: mouse breast cancer 4T1 cell-transplanted models; assay: In vivo breast cancer model (Example 21); parameters: species or system BALB/c mice; details: intraperitoneal 10 mg/kg on days 4 and 7; day 14
Procedure: (§1) Procedures and methods of the experiment were basically performed according to Examples 17 to 20 under substantially the same conditions as in the bone metastasis model experiments of Examples 17 to 20. Drug efficacy evaluation was conducted using mouse tumor models other than Snail-positive tumor bone metastasis models. The drug efficacy of the anti-FSTL1 antibody was evaluated using cancer-bearing models of BALB/c mice different in strain from the C57BL/6 mice used in the preceding tests. Changes were made as follows. • Day 0: transplantation of tumor cells (5×10^5 cells subcutaneously & 5×10^5 cells intravenously) Days 4 and 7: intraperitoneal administration of the antibody (10 mg/kg) • Day 14: drug efficacy evaluation (subcutaneous tumor growth)
The tumor volumes of the mice were measured 4, 7, 11, and 14 days after tumor implantation.

mouse melanoma B16-F10 [2] = assay: In vivo melanoma B16-F10 model (Example 22); parameters: species or system C57BL/6 mice; details: intraperitoneal 10 mg/kg on days 3 and 6
Procedure: (§2) The drug efficacy of the anti-FSTL1 antibody was evaluated according to Examples 17 to 20 using other cancer-bearing models of C57BL/6 mice of the same strain as in Snail-positive tumor bone metastasis models. The “mouse melanoma B16-F10” is a parent line of the cell line forced to express Snail, which was transplanted in the bone metastasis models used in the preceding tests.
1. Experiment Group (n=5) 1. Mouse melanoma B16-F10+control IgG (anti-DNP mAb) 2. Mouse melanoma B16-F10+anti-FSTL mAb (#6-55)
(§3) • Day 0: transplantation of tumor cells (1×10^6 cells subcutaneously & 1×10^6 cells intravenously) • Day 3: intraperitoneal administration of the antibody (first dose, corresponding to 200 μg/mouse=10 mg/kg) • Day 6: intraperitoneal administration of the antibody (second dose, corresponding to 200 μg/mouse=10 mg/kg) • Day 15 various immunological assays
• Effects on the growth of subcutaneous tumor (calculation of tumor volume by tumor size measurement): measured 6, 10, and 14 days after tumor implantation (FIG. 16A) • Effects on weight loss (FIG. 16B)

[3] = test system: human pancreatic cancer cell line Panc1; assay: Action of anti-FSTL1 antibody under FSTL1 stimulation (Example 26); format: cell-based; details: Panc1 stimulated with FSTL1 for 3 days; antibody 5 μg/ml
Procedure: Next, in order to examine how surrounding tumor cells were changed in a cancer microenvironment by receiving FSTL1 produced by Snail/FSTL1-expressing cells, and how the anti-FSTL1 antibody acts thereon, a human pancreatic cancer cell line Panc1 confirmed to express Snail or FSTL1 only slightly was stimulated with FSTL1 for 3 days. The anti-FSTL1 antibody (#6-55, 5 μg/ml) or a control antibody (aHema, 5 μg/ml) was added to this culture system, and subsequent change in cell function was analyzed in the same way as in the preceding paragraph. […] The paper also reports that FSTL1 enhances invasive capacity.

[4] = test system: mouse colorectal cancer CT26 cells; assay: Mouse colorectal cancer CT26 cell-transplanted model (Example 20); format: in vivo
Procedure: as §1, with “performed” for “performed according to Examples 17 to 20”, “19 except that bone metastasis was not evaluated. Specifically, drug” for “20. Drug”, “The test was conducted by changing only the amount of tumor implanted, antibody administration timing, and assay timing.” for “Changes were made as follows.”, “growth (FIG. 108A) and lung metastasis (FIG. 108B)) For lung metastasis, the number of metastatic nodules in the lung was macroscopically counted. The tumor volumes of the mice were measured 7, 11, and 14 days after tumor implantation.” for “growth)”

mouse melanoma B16-F10 [5] = assay: In vivo, mouse melanoma B16-F10 (Example 22)
Procedure: as §2
1. Experiment Group (n=5) • 1. Mouse melanoma B16-F10+control IgG (anti-DNP mAb) • 2. Mouse melanoma B16-F10+anti-FSTL1 mAb (#6-55)
as §3
• Effects on the growth of subcutaneous tumor (calculation of tumor volume by tumor size measurement): measured 6, 10, and 14 days after tumor implantation (FIG. 46A) • Effects on weight loss (FIG. 46B)
• Effects on the growth of subcutaneous tumor (calculation of tumor volume by tumor size measurement): measured 6, 10, and 14 days after tumor implantation (FIG. 78A) • Effects on weight loss (FIG. 78B)

[6] = test system: various human tumor cells; assay: Proliferative capacity and invasive capacity of various human tumor cells (Example 26); format: cell-based; details: antibody 5 μg/ml, particularly in a highly metastatic tumor cell line highly expressing Snail, FIG. 114A
Procedure: Specifically, the influence of the anti-FSTL1 antibody on proliferative capacity and invasive capacity was studied using various human tumor cells, regardless of the presence or absence of the expression of Snail or FSTL1. Specifically, the anti-FSTL1 antibody (#6-55, 5 μg/ml) or a control antibody (aHema: mouse chimeric anti-hemagglutinin antibody, 5 μg/ml) was added to systems in which a pancreatic cancer cell line Panc1 (ATCC #CRL-1469), Panc1-snail+ which is a Panc1 cell line forced to express Snail, a pancreatic cancer cell line MIAPaCa (ATCC #CRL-1420), a bone metastatic breast cancer cell line MDA231 (ATCC #HTB-26), and a melanoma cell line Hs294T (ATCC IHTB-140) were each cultured at 1×10^5 cells. After culture for 3 days, the number of cells per culture system was counted to evaluate the proliferative capacity of the cells. The cells (5×10^4 cells) after the counting were further inoculated to Matrigel-coated transwell chamber (Corning Inc. #354480) and cultured for 4 hours. Then, the membranes were removed, and stained and fixed with Crystal Violet fixative. Then, the number of cells that permeated the membranes was counted under a microscope to evaluate the invasive capacity of the cells.

B1: #6-55: chicken-mouse chimeric anti-FSTL1 antibody clone; variable regions SEQ ID NO: 783 (light), 785 (heavy) (antibody, V domains shown)
VH: AVTLDESGGGLQTPGGALSLVCKGSGFTFTSVTMQWVRQAPGKGLEWVASVCSGSSTYYAPAVKGRATISRDNGQSTVRLQLSNLRPEDTGTYYCAKIAGRARWSCTSAAYNIDAWGHGTEVIVSS
VL: ASTQPSSVSAIPGETVKITCSGGGNNYGWYQQRSPGSAPVTVIYYNDNRPSNIPSRFSGSTSGSTSTLTITGVQADDEAIYYCGSWDSNTDSGIFGAGTTLTVL
modifications: mouse constant regions
In the case of B1, the “growth of 4T1 subcutaneous tumor” value [1] is reported as “significantly suppressed”, the weight loss (mouse melanoma B16-F10 [2]) is reported as “suppressive activity against weight loss was also exhibited” and the subcutaneous tumor growth (mouse melanoma B16-F10 [2]; vs control antibody) is reported as “strongly suppressed”. The cell growth [3] was “the cell growth was reduced by the addition of the anti-FSTL1 antibody together with FSTL1”, the “invasive capacity enhanced by FSTL1” value [3] was “the action thereof is canceled” and the “growth and lung metastasis of CT26 subcutaneous tumor” value ([4]; BALB/c mice, intraperitoneal 10 mg/kg on days 4 and 7, day 14, FIG. 108) was “very strongly suppressed”. The “number of metastatic nodules in the lung” value ([4]; day 14, control antibody group 14 nodules on average, FIG. 108B) was 0 to 3 nodules, the “disappearance of solid tumor (mice)” value ([4]; n=5, intraperitoneal 10 mg/kg on days 4 and 7) was “three out of the five mice” and the weight loss (mouse melanoma B16-F10 [5]; intraperitoneal 10 mg/kg on days 3 and 6) was “suppressive activity against weight loss was also exhibited”. The subcutaneous tumor growth (mouse melanoma B16-F10 [5]; intraperitoneal 10 mg/kg on days 3 and 6, vs control antibody) was “strongly suppressed”, the “proliferative capacity of tumor cells” value ([6]; 3 days) was “strongly suppressed” and the “invasive capacity of tumor cells” value ([6]; Matrigel-coated transwell, 4 hours) was “strongly suppressed”.
